B1: GCSP_HUMAN (protein, UniProt P23378 36-1020, looked up)
Glycine dehydrogenase …: DSSSGGGDSAAAGASRLLERLLPRHDDFARRHIGPGDKDQREMLQTLGLASIDELIEKTVPANIRLKRPLKMEDPVCENEILATLHAISSKNQIWRSYIGMGYYNCSVPQTILRNLLENSGWITQYTPYQPEVSQGRLESLLNYQTMVCDITGLDMANASLLDEGTAAAEALQLCYRHNKRRKFLVDPRCHPQTIAVVQTRAKYTGVLTELKLPCEMDFSGKDVSGVLFQYPDTEGKVEDFTELVERAHQSGSLACCATDLLALCILRPPGEFGVDIALGSSQRFGVPLGYGGPHAAFFAVRESLVRMMPGRMVGVTRDATGKEVYRLALQTREQHIRRDKATSNICTAQALLANMAAMFAIYHGSHGLEHIARRVHNATLILSEGLKRAGHQLQHDLFFDTLKIQCGCSVKEVLGRAAQRQINFRLFEDGTLGISLDETVNEKDLDDLLWIFGCESSAELVAESMGEECRGIPGSVFKRTSPFLTHQVFNSYHSETNIVRYMKKLENKDISLVHSMIPLGSCTMKLNSSSELAPITWKEFANIHPFVPLDQAQGYQQLFRELEKDLCELTGYDQVCFQPNSGAQGEYAGLATIRAYLNQKGEGHRTVCLIPKSAHGTNPASAHMAGMKIQPVEVDKYGNIDAVHLKAMVDKHKENLAAIMITYPSTNGVFEENISDVCDLIHQHGGQVYLDGANMNAQVGICRPGDFGSDVSHLNLHKTFCIPHGGGGPGMGPIGVKKHLAPFLPNHPVISLKRNEDACPVGTVSAAPWGSSSILPISWAYIKMMGGKGLKQATETAILNANYMAKRLETHYRILFRGARGYVGHEFILDTRPFKKSANIEAVDVAKRLQDYGFHAPTMSWPVAGTLMVEPTESEDKAELDRFCDAMISIRQEIADIEEGRIDPRVNPLKMSPHSLTCVTSSHWDRPYSREVAAFPLPFVKPENKFWPTIARIDDIYGDQHLVCTCPPMEVYESPFSEQKRASS
B2: DDX17_HUMAN (protein, UniProt Q92841 1-729, looked up)
Probable ATP-dependent RNA …: MPTGFVAPILCVLLPSPTREAATVASATGDSASERESAAPAAAPTAEAPPPSVVTRPEPQALPSPAIRAPLPDLYPFGTMRGGGFGDRDRDRDRGGFGARGGGGLPPKKFGNPGERLRKKKWDLSELPKFEKNFYVEHPEVARLTPYEVDELRRKKEITVRGGDVCPKPVFAFHHANFPQYVMDVLMDQHFTEPTPIQCQGFPLALSGRDMVGIAQTGSGKTLAYLLPAIVHINHQPYLERGDGPICLVLAPTRELAQQVQQVADDYGKCSRLKSTCIYGGAPKGPQIRDLERGVEICIATPGRLIDFLESGKTNLRRCTYLVLDEADRMLDMGFEPQIRKIVDQIRPDRQTLMWSATWPKEVRQLAEDFLRDYTQINVGNLELSANHNILQIVDVCMESEKDHKLIQLMEEIMAEKENKTIIFVETKRRCDDLTRRMRRDGWPAMCIHGDKSQPERDWVLNEFRSGKAPILIATDVASRGLDVEDVKFVINYDYPNSSEDYVHRIGRTARSTNKGTAYTFFTPGNLKQARELIKVLEEANQAINPKLMQLVDHRGGGGGGGGRSRYRTTSSANNPNLMYQDECDRRLRGVKDGGRRDSASYRDRSETDRAGYANGSGYGSPNSAFGAQAGQYTYGQGTYGAAAYGTSSYTAQEYGAGTYGASSTTSTGRSSQSSSQQFSGIGRSGQQPQPLMSQQFAQPPGATNMIGYMGQTAYQYPPPPPPPPPSRK
B3: CACP_HUMAN (protein, UniProt P43155 1-626, looked up)
Carnitine O-acetyltransferase: MLAFAARTVVKPLGFLKPFSLMKASSRFKAHQDALPRLPVPPLQQSLDHYLKALQPIVSEEEWAHTKQLVDEFQASGGVGERLQKGLERRARKTENWLSEWWLKTAYLQYRQPVVIYSSPGVMLPKQDFVDLQGQLRFAAKLIEGVLDFKVMIDNETLPVEYLGGKPLCMNQYYQILSSCRVPGPKQDTVSNFSKTKKPPTHITVVHNYQFFELDVYHSDGTPLTADQIFVQLEKIWNSSLQTNKEPVGILTSNHRNSWAKAYNTLIKDKVNRDSVRSIQKSIFTVCLDATMPRVSEDVYRSHVAGQMLHGGGSRLNSGNRWFDKTLQFIVAEDGSCGLVYEHAAAEGPPIVTLLDYVIEYTKKPELVRSPLVPLPMPKKLRFNITPEIKSDIEKAKQNLSIMIQDLDITVMVFHHFGKDFPKSEKLSPDAFIQMALQLAYYRIYGQACATYESASLRMFHLGRTDTIRSASMDSLTFVKAMDDSSVTEHQKVELLRKAVQAHRGYTDRAIRGEAFDRHLLGLKLQAIEDLVSMPDIFMDTSYAIAMHFHLSTSQVPAKTDCVMFFGPVVPDGYGVCYNPMEAHINFSLSAYNSCAETNAARLAHYLEKALLDMRALLQSHPRAKL
B4: NUCB1_HUMAN (protein, UniProt Q02818 27-461, looked up)
Nucleobindin-1: VPLERGAPNKEETPATESPDTGLYYHRYLQEVIDVLETDGHFREKLQAANAEDIKSGKLSRELDFVSHHVRTKLDELKRQEVSRLRMLLKAKMDAEQDPNVQVDHLNLLKQFEHLDPQNQHTFEARDLELLIQTATRDLAQYDAAHHEEFKRYEMLKEHERRRYLESLGEEQRKEAERKLEEQQRRHREHPKVNVPGSQAQLKEVWEELDGLDPNRFNPKTFFILHDINSDGVLDEQELEALFTKELEKVYDPKNEEDDMREMEEERLRMREHVMKNVDTNQDRLVTLEEFLASTQRKEFGDTGEGWETVEMHPAYTEEELRRFEEELAAREAELNAKAQRLSQETEALGRSQGRLEAQKRELQQAVLHMEQRKQQQQQQQGHKAPAAHPEGQLKFHPDTDDVPVPAPAGDQKEVDTSEKKLLERLPEVEVPQHL
B5: SF01_HUMAN (protein, UniProt Q15637 2-639, looked up)
Splicing factor 1: ATGANATPLDFPSKKRKRSRWNQDTMEQKTVIPGMPTVIPPGLTREQERAYIVQLQIEDLTRKLRTGDLGIPPNPEDRSPSPEPIYNSEGKRLNTREFRTRKKLEEERHNLITEMVALNPDFKPPADYKPPATRVSDKVMIPQDEYPEINFVGLLIGPRGNTLKNIEKECNAKIMIRGKGSVKEGKVGRKDGQMLPGEDEPLHALVTANTMENVKKAVEQIRNILKQGIETPEDQNDLRKMQLRELARLNGTLREDDNRILRPWQSSETRSITNTTVCTKCGGAGHIASDCKFQRPGDPQSAQDKARMDKEYLSLMAELGEAPVPASVGSTSGPATTPLASAPRPAAPANNPPPPSLMSTTQSRPPWMNSGPSESRPYHGMHGGGPGGPGGGPHSFPHPLPSLTGGHGGHPMQHNPNGPPPPWMQPPPPPMNQGPHPPGHHGPPPMDQYLGSTPVGSGVYRLHQGKGMMPPPPMGMMPPPPPPPSGQPPPPPSGPLPPWQQQQQQPPPPPPPSSSMASSTPLPWQQNTTTTTTSAGTGSIPPWQQQQAAAAASPGAPQMQGNPTMVPLPPGVQPPLPPGAPPPPPPPPPGSAGMMYAPPPPPPPPMDPSNFVTMMGMGVAGMPPFGMPPAPPPPPPQN
B6: SEPT9_HUMAN (protein, UniProt Q9UHD8 1-586, looked up)
Septin-9: MKKSYSGGTRTSSGRLRRLGDSSGPALKRSFEVEEVETPNSTPPRRVQTPLLRATVASSTQKFQDLGVKNSEPSARHVDSLSQRSPKASLRRVELSGPKAAEPVSRRTELSIDISSKQVENAGAIGPSRFGLKRAEVLGHKTPEPAPRRTEITIVKPQESAHRRMEPPASKVPEVPTAPATDAAPKRVEIQMPKPAEAPTAPSPAQTLENSEPAPVSQLQSRLEPKPQPPVAEATPRSQEATEAAPSCVGDMADTPRDAGLKQAPASRNEKAPVDFGYVGIDSILEQMRRKAMKQGFEFNIMVVGQSGLGKSTLINTLFKSKISRKSVQPTSEERIPKTIEIKSITHDIEEKGVRMKLTVIDTPGFGDHINNENCWQPIMKFINDQYEKYLQEEVNINRKKRIPDTRVHCCLYFIPATGHSLRPLDIEFMKRLSKVVNIVPVIAKADTLTLEERVHFKQRITADLLSNGIDVYPQKEFDEDSEDRLVNEKFREMIPFAVVGSDHEYQVNGKRILGRKTKWGTIEVENTTHCEFAYLRDLLIRTHMQNIKDITSSIHFEAYRVKRLNEGSSAMANGMEEKEPEAPEM
B7: MCM4_HUMAN (protein, UniProt P33991 2-863, looked up)
DNA replication licensing …: SSPASTPSRRGSRRGRATPAQTPRSEDARSSPSQRRRGEDSTSTGELQPMPTSPGVDLQSPAAQDVLFSSPPQMHSSAIPLDFDVSSPLTYGTPSSRVEGTPRSGVRGTPVRQRPDLGSAQKGLQVDLQSDGAAAEDIVASEQSLGQKLVIWGTDVNVAACKENFQRFLQRFIDPLAKEEENVGIDITEPLYMQRLGEINVIGEPFLNVNCEHIKSFDKNLYRQLISYPQEVIPTFDMAVNEIFFDRYPDSILEHQIQVRPFNALKTKNMRNLNPEDIDQLITISGMVIRTSQLIPEMQEAFFQCQVCAHTTRVEMDRGRIAEPSVCGRCHTTHSMALIHNRSLFSDKQMIKLQESPEDMPAGQTPHTVILFAHNDLVDKVQPGDRVNVTGIYRAVPIRVNPRVSNVKSVYKTHIDVIHYRKTDAKRLHGLDEEAEQKLFSEKRVELLKELSRKPDIYERLASALAPSIYEHEDIKKGILLQLFGGTRKDFSHTGRGKFRAEINILLCGDPGTSKSQLLQYVYNLVPRGQYTSGKGSSAVGLTAYVMKDPETRQLVLQTGALVLSDNGICCIDEFDKMNESTRSVLHEVMEQQTLSIAKAGIICQLNARTSVLAAANPIESQWNPKKTTIENIQLPHTLLSRFDLIFLLLDPQDEAYDRRLAHHLVALYYQSEEQAEEELLDMAVLKDYIAYAHSTIMPRLSEEASQALIEAYVDMRKIGSSRGMVSAYPRQLESLIRLAEAHAKVRLSNKVEAIDVEEAKRLHREALKQSATDPRTGIVDISILTTGMSATSRKRKEELAEALKKLILSKGKTPALKYQQLFEDIRGQSDIAITKDMFEEALRALADDDFLTVTGKTVRLL
B8: SYDC_HUMAN (protein, UniProt P14868 1-501, looked up)
Aspartate--tRNA ligase, …: MPSASASRKSQEKPREIMDAAEDYAKERYGISSMIQSQEKPDRVLVRVRDLTIQKADEVVWVRARVHTSRAKGKQCFLVLRQQQFNVQALVAVGDHASKQMVKFAANINKESIVDVEGVVRKVNQKIGSCTQQDVELHVQKIYVISLAEPRLPLQLDDAVRPEAEGEEEGRATVNQDTRLDNRVIDLRTSTSQAVFRLQSGICHLFRETLINKGFVEIQTPKIISAASEGGANVFTVSYFKNNAYLAQSPQLYKQMCICADFEKVFSIGPVFRAEDSNTHRHLTEFVGLDIEMAFNYHYHEVMEEIADTMVQIFKGLQERFQTEIQTVNKQFPCEPFKFLEPTLRLEYCEALAMLREAGVEMGDEDDLSTPNEKLLGHLVKEKYDTDFYILDKYPLAVRPFYTMPDPRNPKQSNSYDMFMRGEEILSGAQRIHDPQLLTERALHHGIDLEKIKAYIDSFRFGAPPHAGGGIGLERVTMLFLGLHNVRQTSMFPRDPKRLTP
B9: U2AF2_HUMAN (protein, UniProt P26368 2-475, looked up)
Splicing factor U2AF 65 kDa …: SDFDEFERQLNENKQERDKENRHRKRSHSRSRSRDRKRRSRSRDRRNRDQRSASRDRRRRSKPLTRGAKEEHGGLIRSPRHEKKKKVRKYWDVPPPGFEHITPMQYKAMQAAGQIPATALLPTMTPDGLAVTPTPVPVVGSQMTRQARRLYVGNIPFGITEEAMMDFFNAQMRLGGLTQAPGNPVLAVQINQDKNFAFLEFRSVDETTQAMAFDGIIFQGQSLKIRRPHDYQPLPGMSENPSVYVPGVVSTVVPDSAHKLFIGGLPNYLNDDQVKELLTSFGPLKAFNLVKDSATGLSKGYAFCEYVDINVTDQAIAGLNGMQLGDKKLLVQRASVGAKNATLVSPPSTINQTPVTLQVPGLMSSQVQMGGHPTEVLCLMNMVLPEELLDDEEYEEIVEDVRDECSKYGLVKSIEIPRPVDGVEVPGCGKIFVEFTSVFDCQKAMQGLTGRKFANRVVVTKYCDPDSYHRRDFW

The molecules below were run on KDM4A-I71AzF (assay: CASI: photo-crosslinking with HEK293T cell extracts, StrepTactin enrichment and LC-MS/MS proteomics). Conditions: sheet "Final results but with 0.01".
Assay type: binding, human
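Further: lysates from HEK293T cells pretreated with a KDM4 inhibitor to raise proteome methylation, affinity-purified after ±UV, gel-resolved, trypsin-digested, with exclusive unique peptides per protein averaged per condition.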

First: B1
Second: B2
The “Fold change (+UV/-UV)” value of the first is higher: 6 for the first, 1 for the second.

Compared with B3, B4 is higher in “Fold change (+UV/-UV)” value: 0 for the first, 3 for the second.

Compared with B5, B6 is lower in “Fold change (+UV/-UV)” value: 0.9 for the first, 0.6667 for the second.

First: B7
Second: B8
The “Fold change (+UV/-UV)” value of the first is lower: 0.5 for the first, 2 for the second.

With B9 the “Fold change (+UV/-UV)” value was 2.

Reference: paper PMC10540216, “Activity Guided Azide-methyllysine Photo-trapping for Substrate Profiling of Lysine Demethylases” (Journal of the American Chemical Society, 2023)
